{"source": "the nanobody polyreactivity screen of Harvey et al. (2022)", "data": [{"assay": "yeast display, Sf9 membrane polyspecificity reagent, FACS + sequencing; frameworks hold sequencing errors", "how_it_was_run": "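Synthetic nanobody libraries on Saccharomyces cerevisiae BJ5465 were galactose-induced for 36–48 hours, stained 1 hour at 4 °C with 10% biotinylated, detergent-solubilized Sf9 membrane reagent and enriched on streptavidin microbeads. FACS then separated cells into low and high (top ~1%) gates by anti-HA (expression) and streptavidin (reagent binding) fluorescence. Genes were colony-PCR amplified, MiSeq 2 × 250 sequenced and CDR-length filtered. A clone's polyreactivity label is that of its gate of origin.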", "values": [{"sequence": "QVQLGESGGGIVQAGGSLRLSCAASGIIFARYAMGWSRQAPGKERELVAAISRRGTSTYYADSVKGRFTISRDNAKNTVYLQMNSLKPEDTALYYCAARQLFYLPGPRVDAWGQGTQVTVSS", "polyreactivity (PSR sort gate)": "high polyreactivity"}, {"sequence": "QVQLGESGGGIVQAGGSLRLSCAASGIIFYPYTMGWYRQAPGKERELVAAINSGGSTYYADSVKGRFTISRDNAKNTVYLQMNSLKPEDTAVYYCAAEEALDWYDDWIVSYDYWGQGTQVTVSS", "polyreactivity (PSR sort gate)": "low polyreactivity"}, {"sequence": "QVQLGESGGGLFQAGGSLRLSCAASGRTFVTYAMVWYRQAPGKERELVAAISKRGSRTYYADSVKGRFTISRDNAKNTVYLQMNTLKPEDTAVYYCAVVYSIYTRGYDYWGQGTQVTVSS", "polyreactivity (PSR sort gate)": "high polyreactivity"}, {"sequence": "QVQLGESGGGLLQAGGSLRLSCAASGRTISKNGMGWYRQAPGKERELVAAISGSGGTTYYADSVKGRFTISRDNAKNTVYLQMNSLKPEDTAVYYSADRYTVSRSGYWGLGTQVTVSS", "polyreactivity (PSR sort gate)": "high polyreactivity"}, {"sequence": "QVQLGESGGGLVPARGSLRLSRAASGSTFTTNAMGWYRQAPGKEREFVAAITSSGGSTYYADSVKGRFTISRDNAKNTVYLQMNSLNPEDTAVYYCIADGDPSQKLFGRSYDYWGQGTQVTVSS", "polyreactivity (PSR sort gate)": "low polyreactivity"}, {"sequence": "QVQLGESGGGLVQAGGRLRLSCAASGFTFNTYAMGWYRQAPGKVRALVATITSDGSTTYADSVKGRFTISRDNAKNTVNLQMNSLKPEDTAVYYFNARVWVHRYYYYFTHIITYDYWGQGTQVTVSS", "polyreactivity (PSR sort gate)": "low polyreactivity"}, {"sequence": "QVQLGESGGGLVQAGGSLRLCCAASGRIFVRYTRGWYRQAPGKERELVAAIDQRGGSTYYADSVKGRFTISRDNANNTVSLQLNSLKPEDTAVYYCARVASRTRPGYGYWGQGTQVTVSS", "polyreactivity (PSR sort gate)": "low polyreactivity"}, {"sequence": "QVQLGESGGGLVQAGGSLRLICAASGSTFWTNDMGWYRQAPGKERELVAPISQSAGDTYYADSVKARFTISRDNSKNTFYLQMISLKPEDTAVYYCAADLVFYPFTWDGYYYWGQGTQVTVSS", "polyreactivity (PSR sort gate)": "low polyreactivity"}, {"sequence": "QVQLGESGGGLVQAGGSLRLSCAASARNSSFYEMGWYRQAPGKGSELVAAINWDDGTTYYADSVMGRFTISRDNAQNNVYFQKNSLNPEDTAVYYCAVEGFSSAAYDFEYWGQGSQVTVSS", "polyreactivity (PSR sort gate)": "high polyreactivity"}, {"sequence": "QVQLGESGGGLVQAGGSLRLSCAASGFTFDVNAMGWYRQATGKERELFAGITTSDGSTYYADSVKGRFTISRDNAKNTVYLQMNSLQPEDTAVYYCAAAITWYQLYQRSGGDYWGQGTQVTVSS", "polyreactivity (PSR sort gate)": "low polyreactivity"}, {"sequence": "QVQLGESGGGLVQAGGSLRLSCAASGFTFQEYAMGWYRQAPGKDRELVAAITSGTTTNYADSVKGRFTISRDNAKNTVYLQMNSLKPEDTAVYYCNVRRQSGRYRVYEYDYWGQGTQVTVSS", "polyreactivity (PSR sort gate)": "low polyreactivity"}, {"sequence": "QVQLGESGGGLVQAGGSLRLSCAASGFTFTRYAMGWYRQAPGKERELVAAIRWSGGRTYFADSVKGRFTISRDNAKNTVYLEMNRLKPEDTAVYYCNAVFYDPRREYDYWGQGTQVTVSS", "polyreactivity (PSR sort gate)": "high polyreactivity"}, {"sequence": "QVQLGESGGGLVQAGGSLRLSCAASGFTFYRYTLGWYRQEPGKERELVAAITWSGGNTYYADSVKGRFTISRDNAKNTVYLQMNSLKPEDTAFYYCAAYKPYSKYNYWGQGTQVTVSS", "polyreactivity (PSR sort gate)": "high polyreactivity"}, {"sequence": "QVQLGESGGGLVQAGGSLRLSCAASGGTFSQYAMGWYRHAPGKERELVARISRRGGSTSYADSVKGRFTISRDNAKNTVYLQMNSLKPEDTAVYYCAKDAPSVYPGRFGNTGGYAYDYWGQGTQVTVSS", "polyreactivity (PSR sort gate)": "high polyreactivity"}, {"sequence": "QVQLGESGGGLVQAGGSLRLSCAASGGTFTSYAMGWYRQAPGKERELVAGITSSGGNTYYADSVKGRFTISRDNAKNTVYLQMNSLKPEDTAVYYCAAKSGRGRTMDYWGQGTQVTVSS", "polyreactivity (PSR sort gate)": "high polyreactivity"}, {"sequence": "QVQLGESGGGLVQAGGSLRLSCAASGIIFLGYAMGSYRQAPGKERELVAAFYSGVRTYYADSVKGRFTISRDNAKNTVYLQMNSLKPEDTAVYYCNATWTPYSSKQYYYWGLGTQVTVSS", "polyreactivity (PSR sort gate)": "low polyreactivity"}, {"sequence": "QVQLGESGGGLVQAGGSLRLSCAASGIIFYEYVMVWYRQAPGKEREFVATISSIGGSTYYADSVKGRFTISRDNAKNTVYLQMNSRKPADTAVYYCAADPDPVVAPGGNWYGDDYWGQGSQVTVSS", "polyreactivity (PSR sort gate)": "high polyreactivity"}, {"sequence": "QVQLGESGGGLVQAGGSLRLSCAASGITFERNAMGWYRQAPGKERELVAAWSGGGTYYADSVKGRFTISRDNAKNTVYLQMDSLKPEDTAVYYCAADYRYDLSIGVNYWGQGTQVTVSS", "polyreactivity (PSR sort gate)": "low polyreactivity"}, {"sequence": "QVQLGESGGGLVQAGGSLRLSCAASGLTFDPNAMGWYRQAPGKERELVATITQTDGSTYYADSVKGRFTISRDNAKNTVYLQMNSLKPEDTAVYYCAVDVDEPRYRRPFHHDYWGQGTQVTVSS", "polyreactivity (PSR sort gate)": "low polyreactivity"}, {"sequence": "QVQLGESGGGLVQAGGSLRLSCAASGLTLYLYTMGWYREAPGKEMELVASIDSGTSTKYADSVKGRFTISRDNAKNTVYLQMNSLKPEDTAVYYCAAGVWVTRYFRYYYWGQGTLVTVSS", "polyreactivity (PSR sort gate)": "low polyreactivity"}, {"sequence": "QVQLGESGGGLVQAGGSLRLSCAASGNTFGTYAMGWYRHAPGKERELVAAITWRGGRTTYADSVKGRFTISRDNAKNTVYLQMIRLIPEDTAVYYCAAVIHWWYATYDYWGQGTQVTVSS", "polyreactivity (PSR sort gate)": "high polyreactivity"}, {"sequence": "QVQLGESGGGLVQAGGSLRLSCAASGRIFAGYAMGWYRQAPGKERELVATISSGGSTYYADSVKGRFTISRDNAKNTVYLQMHSLKPEDTAVYYCAAEYATRQYSSYYNLFNYCGQGTQVTVSS", "polyreactivity (PSR sort gate)": "low polyreactivity"}, {"sequence": "QVQLGESGGGLVQAGGSLRLSCAASGRIFAWNAMGWYRQAPGKERELVAAITYNGGSTYYADSVKGRFTISRDNAKNTVYLQMNSLKPEDTAVYYCNKVTRSPAQGYGYWGQGTQVTVSS", "polyreactivity (PSR sort gate)": "high polyreactivity"}, {"sequence": "QVQLGESGGGLVQAGGSLRLSCAASGRIFQIYGMGWYRQAPGKERELVASISSGDSTNFADSVKGRFTISRDNAKNTVYLQMNSLIPEDTAVYYCAARSRRAYNYWGQGTQVTVSS", "polyreactivity (PSR sort gate)": "high polyreactivity"}, {"sequence": "QVQLGESGGGLVQAGGSLRLSCAASGRIFYLNVMGWYRQAPGKERELVAAITRRDVTTYADSVKGRFTISRDNAKNTVYLQMNSLKPEDTAVYYCNAVYYNWIGFDYWGQGTQVTVSS", "polyreactivity (PSR sort gate)": "low polyreactivity"}, {"sequence": "QVQLGESGGGLVQAGGSLRLSCAASGRIYAAYAMGWSRQAPGKERELVAAISGSGGSTSYADSVKGRFTISRDNAKNTVYLQMNSLKPEYTAVYYCAADYSYLAEFDYWGQGTQVTVSS", "polyreactivity (PSR sort gate)": "low polyreactivity"}, {"sequence": "QVQLGESGGGLVQAGGSLRLSCAASGRNFENNAMGWYRQAPGKERELVASIRGGGSTNYADSVKGRFTISRDNAKNTVYVQMNSLKPEDTAVYYCNADYWWSYVRFDYWGQGTQVTVSS", "polyreactivity (PSR sort gate)": "low polyreactivity"}, {"sequence": "QVQLGESGGGLVQAGGSLRLSCAASGRTFDYYAMGWYRQAPGKEWQLVAAISGSGGTTYYADSVKGRFTISRENAKNTVYLQMNSLKAEDTAVYNCDTVRSRLFGQYYYWGQCTQVTVSS", "polyreactivity (PSR sort gate)": "high polyreactivity"}, {"sequence": "QVQLGESGGGLVQAGGSLRLSCAASGRTFPYNAMGWYRQAPGKERELVAAISSGGSTNYADSVKGRFTISRDNAKNTVYLQMNSLKQEDTAVYYCAVTGWPRYTWYSYGYWGQGTQVTLSS", "polyreactivity (PSR sort gate)": "low polyreactivity"}, {"sequence": "QVQLGESGGGLVQAGGSLRLSCAASGSIFRYYAMGLYRQAPGKERELVAAISGSGGITRYADSVKGRFTISRDNAKNTVYLLMNSLKPEDTAVYYCATRPGTRPAYDYWGQGTQVTVSS", "polyreactivity (PSR sort gate)": "high polyreactivity"}, {"sequence": "QVQLGESGGGLVQAGGSLRLSCAASGSIFSRYTMGWYREAPGKERELVAAITSSGGRTYYADSVKGRFTISRDNAKNTVYLQMNRLKAEDTAVYYCAARYFSSFPLYYYWGQGTQVTVSS", "polyreactivity (PSR sort gate)": "high polyreactivity"}, {"sequence": "QVQLGESGGGLVQAGGSLRLSCAASGSIFWLYAMGWYRQAPGKERELVAAIDSGDSRKYADSVKGRFTISRDNAKNTVYLQMNSLTPEDTAVYYCNASRRYHVRAPYDYWGQGTLVTVSS", "polyreactivity (PSR sort gate)": "low polyreactivity"}, {"sequence": "QVQLGESGGGLVQAGGSLRLSCAASGSILRTYTMGWYRPAPGKERELVAAISSSGGRTYYADSVKGRFTISRDNAKNTVYLQMNSLKPEDTAVYYCNAGGYRYRSYDYWGQGTQVTVSS", "polyreactivity (PSR sort gate)": "high polyreactivity"}, {"sequence": "QVQLGESGGGLVQAGGSLRLSCAASGSSFWVNAMGWYRQAPGKETELVAAISRGSTYYADSVKGRFTISRDNAKNTVYLQRNSLKPEDTAVYYCNARYLYSHSRYARYHSWGQGTQVTVSS", "polyreactivity (PSR sort gate)": "high polyreactivity"}, {"sequence": "QVQLGESGGGLVQAGGSLRLSCAASGSTFARYAMGWYRQAPGKERELVAVIRSGGSRNYADSVKGRFTISRDNAKNTVYLQMNSLKPEDTAGAADQWTIHRWATYGYWGQGTQVTVSS", "polyreactivity (PSR sort gate)": "low polyreactivity"}, {"sequence": "QVQLGESGGGLVQAGGSLRLSCAASGSTFKLYAMGWYRQAPGKERELVAAIRGSGGRTYYADSVKGRFTISRDNAKNTVYLQMNSLKPEDTAVYYCAAAYIGVWKYDSWGQGTQVTVSS", "polyreactivity (PSR sort gate)": "high polyreactivity"}, {"sequence": "QVQLGESGGGLVQAGGSLRLSCAASGSTFTSYAMGGSRQAPGKERELVAAITHRGSTNYADSVKGRFTISRDNAKYTVDLQMNSLKPEDTAVYYCNARYATSVLYDYWRQGTQVTVSS", "polyreactivity (PSR sort gate)": "high polyreactivity"}, {"sequence": "QVQLGESGGGLVQAGGSLRLSCAASGSTFVDNTMGWYRQAPGKERELVAAITRSGGSTYYADSVKGRFTISRDNAKNTVYLQMNSLNPEDTAVYYCATYPYSPYFYVYVEPYVYWGQGTQVTVSS", "polyreactivity (PSR sort gate)": "low polyreactivity"}, {"sequence": "QVQLGESGGGLVQAGGSLRLSCAASGSTFYRYAMGWYRQAPGKERELVAAITRGGGNTYYADSVKGRFTISRDNAKNTVYLQMNSLKPEDTAVYYCNTDPTLRSRVGIWGFDYWGQGTQVTVSS", "polyreactivity (PSR sort gate)": "high polyreactivity"}, {"sequence": "QVQLGESGGGLVQAGGSLRLSCAASGYIFRVYAMGWYIQARGKERDFVAAITRGGRTNYADSVKGRFTISRDNAKNTVYLQMNSLKQEDTAVYYCAASFSAIRGGVRVTIDYYWGQGTQVTVSS", "polyreactivity (PSR sort gate)": "high polyreactivity"}, {"sequence": "QVQLGESGGGLVQAGGSLRLSCDASGTSNPYNAMGWYRQAPGKERELVATISTNDGSTYYADSVKGRFTISRDNEKNTVYLQMNSLKPDDTAVYYCASRGFARYWGQRTQVTVSS", "polyreactivity (PSR sort gate)": "low polyreactivity"}, {"sequence": "QVQLGESGGGLVQAGGTLRLSCAAYGFIFGIYDMGSYRQAPGKERELVAAITWDGDTTYYADSVKGRFTISRDNAKNTVYLQMNSLKPEDTAVFYCAVDDSRAYPRPYHWVEYYYWGQGTQVTVSS", "polyreactivity (PSR sort gate)": "low polyreactivity"}, {"sequence": "QVQLGESWACIVQAGGSLRLSCAASGIISYLYAMGLYRHAPGKERELVAVIRTSDAITYYADSVKGRFTISRDTAKNTVYLQMNSLKPEDTAFYYCGGRPRYYLYGYDYWGQGTQVTVSS", "polyreactivity (PSR sort gate)": "high polyreactivity"}]}]}
